Substrate in series [1]: O=c1ccn([C@H]2C[C@H](O)[C@@H](COP(=O)(O)OP(=O)(O)OP(=O)(O)O)O2)c(=O)[nH]1
The series can be described thus: stopped-flow absorbance, proton release with cresol red. Format: biochemical, Dictyostelium discoideum. The conditions noted are these: enzyme 0.15 µM. An excerpt: stopped-flow absorbance, proton release with cresol red on full-length D. discoideum dUTPase

Substrate in series [2]: O=c1ccn([C@H]2C[C@H](O)[C@@H](COP(=O)(O)OP(=O)(O)OP(=O)(O)O)O2)c(=O)[nH]1
Described as above. Format: biochemical, Dictyostelium discoideum. The conditions noted are these: enzyme 0.15 µM. An excerpt:
stopped-flow absorbance, proton release with cresol red on core D. discoideum dUTPase
This is another data set of the same source.

The values below come from article PMC6947831, “Mitochondrial localization of Dictyostelium discoideum dUTPase mediated by its N-terminus” (BMC Research Notes, 2020).

B1: full-length D. discoideum dUTPase (Dictyostelium discoideum) (protein)
chain: MPIEQKYFSLFSNLFKRLTTNNNNNNYLKMAPPNFETFKVKKLSDKAIIPQRGSKGAAGYDLSSAHELVVPAHGKALAMTDLQIAIPDGTYGRIAPRSGLAWKNFIDCGAGVIDSDYRGNVGVVLFNHSDVDFKVAVGDRVAQLIFERIVTPEPLEVDEIDETQRGAGGFGSTGVKVQN
On to B1, for which, in series [1], the Km (usually the substrate concentration at which the rate is half of its maximum) was found to be 1.0 ± 0.2 µM and the Vmax (as a rule, the top rate of the reaction or transport when substrate is in excess) turned out to be 30 µM/min.

B2: core D. discoideum dUTPase (Dictyostelium discoideum) (protein)
chain: FKVKKLSDKAIIPQRGSKGAAGYDLSSAHELVVPAHGKALAMTDLQIAIPDGTYGRIAPRSGLAWKNFIDCGAGVIDSDYRGNVGVVLFNHSDVDFKVAVGDRVAQLIFERIVTPEPLEVDEIDETQRGAGGFGSTGVKVQN
notes: core lacking residues 1-37, N-terminal GSHM from cloning, E. coli, His-tag removed, homotrimer
Take B2: in series [2], the Km is 0.5 ± 0.1 µM; the Vmax was found to be 84 µM/min; the kcat – broadly, the maximal rate divided by the concentration of active sites – came to 9.3 s⁻¹; the kcat/Km (in general, the second-order rate constant that governs catalysis at low substrate concentration) was 1.86e+07 M⁻¹ s⁻¹.
